Assay results reported in paper PMC8799657 (Nature Communications, 2022).

Experiments:
[1] = biological target: T1, soluble human transferrin receptor 1 (human, UniProt P02786); assay: BLI; conditions: both partners purified
T1 construct: also called sTfR1; human sTfR1

[2] = biological target: T2, human transferrin receptor 1 on the cell surface (human (endogenous in erythroblasts), UniProt P02786); conditions: one partner purified
T2 construct: also called hTfR1; TfR1
T2 sequence (P02786 whole entry): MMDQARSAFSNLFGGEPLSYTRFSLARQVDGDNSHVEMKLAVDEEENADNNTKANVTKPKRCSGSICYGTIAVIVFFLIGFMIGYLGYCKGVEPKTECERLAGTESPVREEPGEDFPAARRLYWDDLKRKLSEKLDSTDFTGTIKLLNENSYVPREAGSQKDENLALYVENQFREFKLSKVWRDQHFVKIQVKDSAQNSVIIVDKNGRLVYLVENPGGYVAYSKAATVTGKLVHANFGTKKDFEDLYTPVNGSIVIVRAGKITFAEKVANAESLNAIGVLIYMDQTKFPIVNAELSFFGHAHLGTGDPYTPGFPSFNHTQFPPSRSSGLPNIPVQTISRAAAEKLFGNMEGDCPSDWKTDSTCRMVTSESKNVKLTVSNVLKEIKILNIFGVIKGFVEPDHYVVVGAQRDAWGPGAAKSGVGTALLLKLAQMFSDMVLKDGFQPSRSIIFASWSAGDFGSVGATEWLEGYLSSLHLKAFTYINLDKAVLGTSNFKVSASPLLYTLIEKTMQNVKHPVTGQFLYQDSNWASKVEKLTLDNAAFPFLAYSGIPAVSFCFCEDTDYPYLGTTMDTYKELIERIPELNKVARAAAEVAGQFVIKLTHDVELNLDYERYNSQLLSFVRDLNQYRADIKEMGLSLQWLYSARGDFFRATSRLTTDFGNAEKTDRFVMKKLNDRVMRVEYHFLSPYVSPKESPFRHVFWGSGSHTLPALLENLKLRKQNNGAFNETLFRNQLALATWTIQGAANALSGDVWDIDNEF

T1 sequence (P02786 121-760): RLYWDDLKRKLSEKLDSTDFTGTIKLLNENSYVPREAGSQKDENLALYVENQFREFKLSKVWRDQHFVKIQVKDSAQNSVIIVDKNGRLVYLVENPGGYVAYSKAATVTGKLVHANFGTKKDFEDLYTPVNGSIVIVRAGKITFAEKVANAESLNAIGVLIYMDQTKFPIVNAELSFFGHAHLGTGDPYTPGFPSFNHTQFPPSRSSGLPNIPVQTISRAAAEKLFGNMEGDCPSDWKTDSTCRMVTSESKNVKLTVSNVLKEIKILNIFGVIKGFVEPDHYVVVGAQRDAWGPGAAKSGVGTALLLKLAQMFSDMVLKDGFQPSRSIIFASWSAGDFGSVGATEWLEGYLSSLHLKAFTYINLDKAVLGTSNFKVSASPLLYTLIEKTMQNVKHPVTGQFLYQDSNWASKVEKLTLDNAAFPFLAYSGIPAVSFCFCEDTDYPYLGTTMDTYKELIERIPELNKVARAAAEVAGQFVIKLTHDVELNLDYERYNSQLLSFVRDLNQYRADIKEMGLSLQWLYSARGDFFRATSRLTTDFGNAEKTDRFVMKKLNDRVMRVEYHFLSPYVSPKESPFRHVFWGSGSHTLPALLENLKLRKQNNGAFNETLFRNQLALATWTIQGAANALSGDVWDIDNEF

Row | Binder | binding result [1] | binding result [2]
1 | Fab fragment of the mouse/human chimeric 128.1 IgG1 antibody (Fab, V domains shown, also called Fab ch128.1/IgG1; ch128.1 Fab) VH: EVQLQQSGPELVKPGASMKISCKASGYSFTGYTMNWVKQSHGENLEWIGRINPHNGGTDYNQKFKDKAPLTVDKSSNTAYMELLSLTSGDSAVYYCARGYYYYSLDYWGQGTSVTVSS VL: QIVLTQSPAIMSVSPGEKVTMTCSASSSIRYIHWYQQRPGTSPKRWIYDTSNLASGVPARFSGSGSGTSYSLTISSMEAEDAATYYCHQRNSYPWTFGGGTRLEIR | binds | 
2 | mouse/human chimeric IgG1/κ antibody ch128.1/IgG1 (antibody, V domains shown) VH: EVQLQQSGPELVKPGASMKISCKASGYSFTGYTMNWVKQSHGENLEWIGRINPHNGGTDYNQKFKDKAPLTVDKSSNTAYMELLSLTSGDSAVYYCARGYYYYSLDYWGQGTSVTVSS VL: QIVLTQSPAIMSVSPGEKVTMTCSASSSIRYIHWYQQRPGTSPKRWIYDTSNLASGVPARFSGSGSGTSYSLTISSMEAEDAATYYCHQRNSYPWTFGGGTRLEIR |  | binds
